The values that follow are results of earlier work, collected in publication PMC7054563.

The data set deals with Glu150 (UniProt position 150, LMANVELIAPL).

The term pKa denotes the negative logarithm of the acid dissociation constant. As for “Multidrug transporter MdfA, triple mutant E26T/D34M/A150E (Escherichia coli; E26T;D34M;A150E)”, the pKa is 6.5.
